molecular target: T1, HLA-A*02 (Homo sapiens, UniProt P04439, D140Y/D185E/D98H/E176V/E277Q/G131W/G231S/I119V/I121R/I166T/I218V/L300P/N151K/N90K/P208A/P217A/Q86G/Q94H/R138H/R169H); assay: MHC binding assay, UV-ligand exchange with beta2m ELISA (peptide exchange yield); details: binding to HLA-A*02
T1 construct: made in house
Text: Candidate peptides for T cell based therapies according to the present invention were further tested for their MHC binding capacity (affinity). The individual peptide-MHC complexes were produced by UV-ligand exchange, where a UV-sensitive peptide is cleaved upon UV-irradiation, and exchanged with the peptide of interest as analyzed. Only peptide candidates that can effectively bind and stabilize the peptide-receptive MHC molecules prevent dissociation of the MHC complexes. To determine the yield of the exchange reaction, an ELISA was performed based on the detection of the light chain (β2m) of stabilized MHC complexes. The assay was performed as generally described in Rodenko et al. (Rodenko et al., 2006).
96 well MAXISorp plates (NUNC) were coated over night with 2 ug/ml streptavidin in PBS at room temperature, washed 4× and blocked for 1h at 37° C. in 2% BSA containing blocking buffer. Refolded HLA-A*02:01/MLA-001 monomers served as standards, covering the range of 15-500 ng/ml. Peptide-MHC monomers of the UV-exchange reaction were diluted 100 fold in blocking buffer. Samples were incubated for 1h at 37° C., washed four times, incubated with 2 ug/ml HRP conjugated anti-32m for 1h at 37° C., washed again and detected with TMB solution that is stopped with […]. Absorption was measured at 450 nm. Candidate peptides that show a high exchange yield (preferably higher than 50%, most preferred higher than 75%) are generally preferred for a generation and production of antibodies or fragments thereof, and/or T cell receptors or fragments thereof, as they show sufficient avidity to the MHC molecules and prevent dissociation of the MHC complexes.

Row | Substance | Peptide exchange (MHC class I binding score, peptide exchange yield)
1 | 130 (SLLGGTFVGI; listed as Homo sapiens) [compound 130] | +++ (50%-75% = +++)
2 | 71 (VLHSKFWVV; listed as Homo sapiens) [compound 71] | +++ (50%-75% = +++)
3 | 100 (ALLGMIIVGV; listed as Homo sapiens) [compound 100] | + (<20% = +)
4 | 110 (FLLGVSKEV; listed as Homo sapiens) [compound 110] | +++ (50%-75% = +++)
5 | 51 (LLFSRLCGA; listed as Homo sapiens) [compound 51] | ++++ (> = 75% = ++++)
6 | 99 (YLLQSVNQLLL; listed as Homo sapiens) [compound 99] | ++ (20%-49% = ++)
7 | 70 (LLLGDSALYL; listed as Homo sapiens) [compound 70] | +++ (50%-75% = +++)
8 | 13 (ALMAMLVYV; listed as Homo sapiens) [compound 13] | ++ (20%-49% = ++)
9 | 87 (TIYKDFVYI; listed as Homo sapiens) [compound 87] | ++ (20%-49% = ++)
10 | 64 (SLFPDSLIV; listed as Homo sapiens) [compound 64] | ++ (20%-49% = ++)
11 | 128 (TQSPATLSV; listed as Homo sapiens) [compound 128] | ++ (20%-49% = ++)
12 | 30 (AMIEEVFEA; listed as Homo sapiens) [compound 30] | ++ (20%-49% = ++)
13 | 22 (FVDPNTQEKV; listed as Homo sapiens) [compound 22] | ++ (20%-49% = ++)
14 | 32 (VQLDSIEDLEV; listed as Homo sapiens) [compound 32] | +++ (50%-75% = +++)
15 | 28 (SLPNGKPVSV; listed as Homo sapiens) [compound 28] | +++ (50%-75% = +++)
16 | 63 (SQIPAQPSV; listed as Homo sapiens) [compound 63] | ++ (20%-49% = ++)

Row | Substance | Peptide exchange (MHC class I binding score, peptide exchange yield)
17 | 134 (GLAVPTPSV; listed as Homo sapiens) [compound 134] | +++ (50%-75% = +++)
18 | 56 (FLHDEKEGIYI; listed as Homo sapiens) [compound 56] | +++ (50%-75% = +++)
19 | 119 (FIIQGLRSVGA; listed as Homo sapiens) [compound 119] | +++ (50%-75% = +++)
20 | 9 (FLVDGSYSI; listed as Homo sapiens) [compound 9] | +++ (50%-75% = +++)
21 | 40 (VLIDPQWVLTA; listed as Homo sapiens) [compound 40] | +++ (50%-75% = +++)
22 | 34 (FLLATEVVTV; listed as Homo sapiens) [compound 34] | ++++ (> = 75% = ++++)
23 | 33 (YIKTELISV; listed as Homo sapiens) [compound 33] | +++ (50%-75% = +++)
24 | 85 (VLNDILVRA; listed as Homo sapiens) [compound 85] | +++ (50%-75% = +++)
25 | 118 (QLWQFLVTL; listed as Homo sapiens) [compound 118] | +++ (50%-75% = +++)
26 | 10 (GIAGSLKTV; listed as Homo sapiens) [compound 10] | +++ (50%-75% = +++)
27 | 38 (FLGPRIIGL; listed as Homo sapiens) [compound 38] | +++ (50%-75% = +++)
28 | 79 (VTFKEYVTV; listed as Homo sapiens) [compound 79] | ++ (20%-49% = ++)
29 | 15 (YLDLSHNQL; listed as Homo sapiens) [compound 15] | +++ (50%-75% = +++)
30 | 47 (ALLERGELFV; listed as Homo sapiens) [compound 47] | +++ (50%-75% = +++)
31 | 126 (QMFQYFITV; listed as Homo sapiens) [compound 126] | ++++ (> = 75% = ++++)
32 | 86 (SVDSHFQEV; listed as Homo sapiens) [compound 86] | ++ (20%-49% = ++)

Further lines, results first:

Row | Peptide exchange (MHC class I binding score, peptide exchange yield) | Substance
33 | +++ (50%-75% = +++) | 145 (YLWATIQRI; listed as Homo sapiens) [compound 145]
34 | +++ (50%-75% = +++) | 156 (ILGDLSHLL; listed as Homo sapiens) [compound 156]
35 | +++ (50%-75% = +++) | 234 (LLSPHNPAL; listed as Homo sapiens) [compound 234]
36 | ++ (20%-49% = ++) | 241 (KTIQQLETV; listed as Homo sapiens) [compound 241]
37 | ++ (20%-49% = ++) | 146 (ALHFSEDEI; listed as Homo sapiens) [compound 146]
38 | ++++ (> = 75% = ++++) | 245 (SLLDLPLSL; listed as Homo sapiens) [compound 245]
39 | +++ (50%-75% = +++) | 250 (SLAPATPEV; listed as Homo sapiens) [compound 250]
40 | +++ (50%-75% = +++) | 255 (SLLHFTENL; listed as Homo sapiens) [compound 255]
41 | ++ (20%-49% = ++) | 263 (VLLSEQGDVKL; listed as Homo sapiens) [compound 263]
42 | +++ (50%-75% = +++) | 264 (KLFPQETLFL; listed as Homo sapiens) [compound 264]
43 | ++ (20%-49% = ++) | 254 (KLQGKLPEL; listed as Homo sapiens) [compound 254]
44 | +++ (50%-75% = +++) | 261 (QLQDRVYAL; listed as Homo sapiens) [compound 261]
45 | +++ (50%-75% = +++) | 260 (ILLEKILSL; listed as Homo sapiens) [compound 260]
46 | ++++ (> = 75% = ++++) | 153 (FISERVEVV; listed as Homo sapiens) [compound 153]
